Experimental data from patent US20230374088A1 (GENERAL HOSPITAL, published 2023).
Residue numbers refer to the chain shown, from its start. In names and notes the source's numbering stands.

T1: c-Myc-Gli2 (418-594aa) ZF2-mut (H493A, R496A) (human, UniProt P10070 418-594)
T1 construct: also called Gli2 ZF-2 (H493A/R496A); not shown: c-myc tag from pCMV-BICEP-4 (MCS2)
T1 sequence (looked up): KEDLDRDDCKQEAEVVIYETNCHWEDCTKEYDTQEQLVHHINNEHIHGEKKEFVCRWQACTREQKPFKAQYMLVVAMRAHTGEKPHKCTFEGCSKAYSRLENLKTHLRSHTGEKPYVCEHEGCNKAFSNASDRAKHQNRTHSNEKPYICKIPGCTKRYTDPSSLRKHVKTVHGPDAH

T2: c-Myc-Gli2 (418-594aa) ZF3-mut (H503A, R516A, K521A) (human, UniProt P10070 418-594)
T2 construct: also called ZF-3 (H503A/R516A/K521A); not shown: c-myc tag from pCMV-BICEP-4 (MCS2)
T2 sequence (looked up): T1 sequence (looked up) with A76H, A79R, H86A, R99A, K104A

T3: c-Myc-Gli2 (418-594aa) (human, UniProt P10070 418-594)
T3 construct: Expressed in Expi293F cells for the pull-down; also called Gli2-ZF (in the pull-down); not shown: c-myc tag from pCMV-BICEP-4 (MCS2), N-terminal by the name
T3 sequence (looked up): T1 sequence (looked up) with A76H, A79R

B1: FLAG-Kif7-CC (460-600aa) (other)
chain: PDSGIESASVEDQAAQGAGGRKEDEGAQQLLTLQNQVARLEEENRDFLAALEDAMEQYKLQSDRLREQQEEMVELRLRLELVRPGWGGPRLLNGLPPGSFVPRPHTAPLGGAHAHVLGMVPPACLPGDEVGSEQRGEQVTN
notes: Expressed in Expi293F cells for the pull-down; also called Kif7(460-600aa); not shown: FLAG tag from pCMV-BICEP-4 (MCS1), N-terminal by the name
B2: FLAG-Kif7-CC (460-600aa) S1-mut (E500A, E501A, E502A, D505A) (other)
chain: B1 chain with E41A, E42A, E43A, D46A
notes: also called Kif7-CC S1; not shown: FLAG tag from pCMV-BICEP-4 (MCS1)

Experiments:
Test in all cases: pull-down on anti-FLAG beads, anti-c-myc blot, Expi293F cells
[1] = molecular target: T1, c-Myc-Gli2 (418-594aa) ZF2-mut (H493A, …)
Text: (§1) Immunoprecipitation (IP) using anti-FLAG magnetic beads. Input (cell lysate), FT (flow through), wash and beads samples were immunoblotted (IB) with anti c-Myc antibody to detect Gli2. […] The blots are representative images of a minimum of three repeats. Gli2-ZF mutants are as follows: ZF2-mut (H493A, R496A), ZF3-mut (H503A, R516A, K521A), ZF4-mut (R550A, K552A, R556A). Kif7-CC mutants are as follows: S1-mut (E500A, E501A, E502A, D505A), S2-mut (E511A, E515A), S3-mut1 (E526A, E529A) and S3-mut2 (E530A, R535A).
(§2) To narrow down the residues that participate in binding, we analyzed the model of the Kif7-SCC:Gli2-ZF complex using PDBsum server (De Beer et al., Nucleic acids research, 42, D292-D296, 2014). We performed alanine scanning mutagenesis of the charged residues on Gli2-ZF that came up as part of the binding interface in the PDBsum analysis and analyzed their binding with pull-down assay (FIG. 3D). […] We systematically mutated the residues to alanine and performed the pull-down assay with Gli2-ZF.

[2] = molecular target: T2, c-Myc-Gli2 (418-594aa) ZF3-mut (H503A, …)
Text: as §1, §2

c-Myc-Gli2 (418-594aa) = molecular target: T3, c-Myc-Gli2 (418-594aa)
Text: as §1, §2

Binder	binding result [1]	binding result [2]	binding result (c-Myc-Gli2 (418-594aa))
B1	no binding	no binding	–
B2	–	–	no binding
